The record followed here is paper PMC4955127 (Biotechnology for Biofuels, 2016).

Usually Ki stands for the dissociation constant of the complex between target and ligand, obtained from inhibition or displacement. A low value points to tighter binding. The term Km denotes the concentration of substrate that gives half-maximal velocity. Broadly, the Vmax is the rate approached at saturating substrate. The kcat is the maximal rate divided by the concentration of active sites. Broadly, the kcat/Km is the second-order rate constant that governs catalysis at low substrate concentration.

Data set [1] deals with T1, Bgl3A (Evansstolkia leycettana, UniProt A0A1B0VFN7).
T1 construct: mature enzyme without native signal peptide (residues 1-19 of 737 removed)
T1 sequence (A0A1B0VFN7 20-737): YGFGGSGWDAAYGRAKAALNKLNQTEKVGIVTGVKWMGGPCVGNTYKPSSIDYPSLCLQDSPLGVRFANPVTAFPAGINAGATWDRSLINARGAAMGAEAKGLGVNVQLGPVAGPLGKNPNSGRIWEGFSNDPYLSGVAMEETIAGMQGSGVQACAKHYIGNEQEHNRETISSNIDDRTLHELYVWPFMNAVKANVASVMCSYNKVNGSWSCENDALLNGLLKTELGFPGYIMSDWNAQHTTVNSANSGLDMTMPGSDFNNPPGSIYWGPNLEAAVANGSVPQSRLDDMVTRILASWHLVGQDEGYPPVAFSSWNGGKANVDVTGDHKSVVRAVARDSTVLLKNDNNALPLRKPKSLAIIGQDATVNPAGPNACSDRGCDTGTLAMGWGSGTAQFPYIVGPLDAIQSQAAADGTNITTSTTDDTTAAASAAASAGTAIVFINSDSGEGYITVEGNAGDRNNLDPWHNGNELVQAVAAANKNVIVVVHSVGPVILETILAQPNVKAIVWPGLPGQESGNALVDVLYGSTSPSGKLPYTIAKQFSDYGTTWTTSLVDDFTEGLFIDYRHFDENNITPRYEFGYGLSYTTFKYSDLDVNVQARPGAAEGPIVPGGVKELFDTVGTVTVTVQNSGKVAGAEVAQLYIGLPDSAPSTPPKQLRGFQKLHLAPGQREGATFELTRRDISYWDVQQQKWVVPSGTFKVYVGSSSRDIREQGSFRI
Nature of the data set: glucose inhibition of pNPG hydrolysis. It counts as biochemical. Conditions: product inhibition; substrate pNPG.

Substrate in data set [2]: O=[N+]([O-])c1ccc(O[C@@H]2O[C@H](CO)[C@@H](O)[C@H](O)[C@H]2O)cc1
Nature of the data set: purified protein. Conditions: 100 mM Na2HPO4-citric acid, optimal conditions (pH 4.5, 75 °C), 5 min.

For the molecule `OC[C@H]1OC(O)[C@H](O)[C@@H](O)[C@@H]1O` (some centres unmarked) [glucose], the Ki in data set [1] was 14 mM.

B1: Bgl3A (Evansstolkia leycettana) (protein)
chain: T1 sequence (A0A1B0VFN7 20-737)
For B1, in data set [2], the Km was 180 µM, the Vmax came to 1310 µmol/min/mg, the kcat was 1660 s⁻¹ and the kcat/Km turned out to be 9.1e+06 M⁻¹ s⁻¹.
